Assay results taken from PMC10267678 (2023).

B1: NJT6 (VHH)
VHH: QVQLVETGGDLVQPGGSLRLSCAASGLTLDYYAIGWVRQAPGKEREGVSCITPQDGNTYYDDSVMGRFTILRDNAKNMVYLQMNNLKPEDTAVYFCAAAGALTLDPSEYEYWGQGTQVTVSS
modifications: biotin (BLI, IHC) or Alexa-647 (two-photon imaging) added at the C-terminus by sortase-mediated tagging
B2: NJT4 (VHH)
VHH: QVQLVESGGGLVQPGGSLRLSCAASGFTFSSYTMRWYRQAPGKERELVAFIGVAGGSTKYADSVKGRFTISRDNTKNTVYLQMNTLKPEDTAVYYCYAPLTPYWGQGTQVTVSS
modifications: biotin (BLI, IHC) or Alexa-647 (two-photon imaging) added at the C-terminus by sortase-mediated tagging
B3: NJT3 (VHH)
VHH: QVQLVETGGGLAQAGGSLRLSCAASGRTLSGYAMGWFRQAPGKEREFVAAISWSGRNTYYDYTVQGRFTISKDNAKNTVNLQMNSLKPEDTAVYYCAVSRSLDEFGDGYEMDYWGDGTQVTVSS
modifications: biotin (BLI, IHC) or Alexa-647 (two-photon imaging) added at the C-terminus by sortase-mediated tagging

molecular target: T1, full-length human TNC protein (human, UniProt P24821 23-2201); assay: BLI
T1 sequence (P24821 23-2201): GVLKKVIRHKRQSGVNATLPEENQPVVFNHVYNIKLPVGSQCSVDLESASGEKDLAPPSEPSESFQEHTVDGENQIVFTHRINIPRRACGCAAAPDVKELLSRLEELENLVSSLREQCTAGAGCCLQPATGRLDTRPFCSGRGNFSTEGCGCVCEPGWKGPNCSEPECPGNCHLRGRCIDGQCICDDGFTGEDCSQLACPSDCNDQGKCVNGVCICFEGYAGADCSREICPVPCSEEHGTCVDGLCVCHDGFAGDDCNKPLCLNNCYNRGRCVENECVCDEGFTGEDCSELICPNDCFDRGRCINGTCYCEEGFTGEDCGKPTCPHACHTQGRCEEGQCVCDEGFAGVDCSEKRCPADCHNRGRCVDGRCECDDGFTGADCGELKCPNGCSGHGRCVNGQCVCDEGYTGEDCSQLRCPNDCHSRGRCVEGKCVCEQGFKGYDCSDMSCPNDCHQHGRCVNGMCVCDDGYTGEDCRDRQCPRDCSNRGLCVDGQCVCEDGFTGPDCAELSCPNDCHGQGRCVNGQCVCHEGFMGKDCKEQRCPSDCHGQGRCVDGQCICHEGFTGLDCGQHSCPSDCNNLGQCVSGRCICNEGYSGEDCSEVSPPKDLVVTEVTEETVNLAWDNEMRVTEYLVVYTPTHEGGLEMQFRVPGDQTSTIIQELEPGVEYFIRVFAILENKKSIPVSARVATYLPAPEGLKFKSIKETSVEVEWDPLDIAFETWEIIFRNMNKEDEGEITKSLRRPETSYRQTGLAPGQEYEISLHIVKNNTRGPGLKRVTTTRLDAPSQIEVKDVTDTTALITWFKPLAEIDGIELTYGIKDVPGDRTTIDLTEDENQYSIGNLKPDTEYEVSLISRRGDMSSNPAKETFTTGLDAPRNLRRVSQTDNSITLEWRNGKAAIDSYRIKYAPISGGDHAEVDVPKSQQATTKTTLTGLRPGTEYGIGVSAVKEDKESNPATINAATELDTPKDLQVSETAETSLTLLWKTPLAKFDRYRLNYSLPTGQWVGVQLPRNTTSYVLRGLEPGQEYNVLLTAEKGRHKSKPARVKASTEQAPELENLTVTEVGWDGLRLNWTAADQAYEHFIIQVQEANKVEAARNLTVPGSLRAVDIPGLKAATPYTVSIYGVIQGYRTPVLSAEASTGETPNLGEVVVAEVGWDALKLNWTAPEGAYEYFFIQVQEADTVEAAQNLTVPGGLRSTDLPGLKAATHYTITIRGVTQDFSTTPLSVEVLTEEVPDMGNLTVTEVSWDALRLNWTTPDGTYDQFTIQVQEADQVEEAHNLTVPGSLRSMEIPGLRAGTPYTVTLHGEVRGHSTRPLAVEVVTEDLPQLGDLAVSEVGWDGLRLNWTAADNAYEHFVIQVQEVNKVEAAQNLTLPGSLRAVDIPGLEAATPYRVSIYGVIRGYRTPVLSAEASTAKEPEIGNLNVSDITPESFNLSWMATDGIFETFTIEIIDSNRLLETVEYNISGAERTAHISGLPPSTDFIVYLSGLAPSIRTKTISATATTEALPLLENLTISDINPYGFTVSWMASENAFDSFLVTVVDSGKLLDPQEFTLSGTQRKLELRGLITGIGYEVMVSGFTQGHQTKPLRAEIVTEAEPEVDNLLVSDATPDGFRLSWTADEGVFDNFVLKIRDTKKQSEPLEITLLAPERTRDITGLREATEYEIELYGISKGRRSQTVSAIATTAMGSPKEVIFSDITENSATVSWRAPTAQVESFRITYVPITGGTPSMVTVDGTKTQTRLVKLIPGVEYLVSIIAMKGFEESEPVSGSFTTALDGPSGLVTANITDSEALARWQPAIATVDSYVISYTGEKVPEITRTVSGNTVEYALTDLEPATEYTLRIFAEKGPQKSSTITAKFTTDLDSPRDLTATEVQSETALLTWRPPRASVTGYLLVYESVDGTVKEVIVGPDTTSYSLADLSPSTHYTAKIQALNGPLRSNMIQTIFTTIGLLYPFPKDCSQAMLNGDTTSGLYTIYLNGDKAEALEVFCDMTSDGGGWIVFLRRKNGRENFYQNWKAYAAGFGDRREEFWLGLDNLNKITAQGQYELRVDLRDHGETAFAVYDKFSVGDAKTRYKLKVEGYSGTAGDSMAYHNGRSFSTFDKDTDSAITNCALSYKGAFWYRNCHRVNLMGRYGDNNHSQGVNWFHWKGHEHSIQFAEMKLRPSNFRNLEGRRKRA

Question: B1 was tested. Which Kd did it give?
Answer: The Kd was under 1 pM.

Question: With B2 as the binder, how does the Kd read?
Answer: The Kd was under 1 pM.

Question: B3 was tested. Which Kd did it give?
Answer: Its Kd is 1.47 pM.

molecular target: T1, full-length human TNC protein; assay: BLI; remark: another data set of the same source

Question: With B1 as the binder, how does the koff read?
Answer: The koff was under 1e-07 s⁻¹.

Question: How did the koff turn out when B2 was run?
Answer: Its koff is under 1e-07 s⁻¹.

Question: Which koff does the source give for B3 here?
Answer: Its koff is 2.35e-07 s⁻¹.
